# Experimental data published in IntAct's records for PubMed 23542155.
# B1: Ligand-dependent nuclear receptor-interacting factor 1 (Homo sapiens), Q5T3J3 (parent)
# chain: MSNNLRRVFLKPAEENSGNASRCVSGCMYQVVQTIGSDGKNLLQLLPIPKSSGNLIPLVQSSVMSDALKGNTGKPVQVTFQTQISSSSTSASVQLPIFQPASSSNYFLTRTVDTSEKGRVTSVGTGNFSSSVSKVQSHGVKIDGLTMQTFAVPPSTQKDSSFIVVNTQSLPVTVKSPVLPSGHHLQIPAHAEVKSVPASSLPPSVQQKILATATTSTSGMVEASQMPTVIYVSPVNTVKNVVTKNFQNIYPKPVTEIAKPVILNTTQIPKNVATETQLKGGQHSQAAPVKWIFQDNLQPFTPSLVPVKSSNNVASKILKTFVDRKNLGDNTINMPPLSTIDPSGTRSKNMPIKDNALVMFNGKVYLLAKKGTDVLPSQIDQQNSVSPDTPVRKDTLQTVSSSPVTEISREVVNIVLAKSKSSQMETKSLSNTQLASMANLRAEKNKVEKPSPSTTNPHMNQSSNYLKQSKTLFTNPIFPVGFSTGHNAPRKVTAVIYARKGSVLQSIEKISSSVDATTVTSQQCVFRDQEPKIHNEMASTSDKGAQGRNDKKDSQGRSNKALHLKSDAEFKKIFGLTKDLRVCLTRIPDHLTSGEGFDSFSSLVKSGTYKETEFMVKEGERKQQNFDKKRKAKTNKKMDHIKKRKTENAYNAIINGEANVTGSQLLSSILPTSDVSQHNILTSHSKTRQEKRTEMEYYTHEKQEKGTLNSNAAYEQSHFFNKNYTEDIFPVTPPELEETIRDEKIRRLKQVLREKEAALEEMRKKMHQK
# Variants of: B1
# Details: with cbx5_human CBX5, P45973
# cbx5_human CBX5, P45973, sequence (P45973 whole entry): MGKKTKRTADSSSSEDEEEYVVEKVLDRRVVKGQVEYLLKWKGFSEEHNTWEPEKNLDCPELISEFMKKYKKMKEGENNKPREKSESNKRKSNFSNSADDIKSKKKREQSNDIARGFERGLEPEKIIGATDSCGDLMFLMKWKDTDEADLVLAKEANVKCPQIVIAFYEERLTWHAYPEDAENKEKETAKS
row,Variant,effect of a mutation on the interaction
1,V582D;L584E,disrupting interaction strength
